Measurements as given in article doi:10.1101/2020.12.02.409011 (bioRxiv, 2020).

Target: the molecule itself
Experiment: crystal structure

B1: Bacillus subtilis PurR (purine synthesis transcription regulator), untagged (natural protein)
chain: MKFRRSGRLVDLTNYLLTHPHELIPLTFFSERYESAKSSISEDLTIIKQTFEQQGIGTLLTVPGAAGGVKYIPKMKQAEAEEFVQTLGQSLANPERILPGGYVYLTDILGKPSVLSKVGKLFASVFAEREIDVVMTVATKGIPLAYAAASYLNVPVVIVRKDNKVTEGSTVSINYVSGSSNRIQTMSLAKRSMKTGSNVLIIDDFMKAGGTINGMINLLDEFNANVAGIGVLVEAEGVDERLVDEYMSLLTLSTINMKEKSIEIQNGNFLRFFKDNLLKNGETES
Q: Does B1 bind?
A: Result: binds
